Laboratory results as given in patent US5942405A, “Therapeutic and screening methods using C3a receptor and C3a” (priority 1997, dated 1999).
“Also recorded” adds a separate entry of the source.

T1: C3a Receptor (Homo sapiens, UniProt Q16581)
T1 sequence (Q16581 1-482 F151C): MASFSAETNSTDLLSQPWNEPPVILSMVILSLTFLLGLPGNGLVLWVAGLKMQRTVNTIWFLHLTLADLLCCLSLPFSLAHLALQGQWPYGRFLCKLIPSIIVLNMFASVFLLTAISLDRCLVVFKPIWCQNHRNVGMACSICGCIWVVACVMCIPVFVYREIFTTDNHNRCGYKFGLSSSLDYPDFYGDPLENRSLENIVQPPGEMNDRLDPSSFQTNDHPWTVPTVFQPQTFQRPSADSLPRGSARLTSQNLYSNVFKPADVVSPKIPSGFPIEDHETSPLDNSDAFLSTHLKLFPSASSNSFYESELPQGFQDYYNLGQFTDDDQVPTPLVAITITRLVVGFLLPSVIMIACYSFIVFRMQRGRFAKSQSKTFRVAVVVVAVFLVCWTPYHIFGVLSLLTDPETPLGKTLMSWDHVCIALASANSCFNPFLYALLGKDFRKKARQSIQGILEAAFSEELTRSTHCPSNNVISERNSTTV


What was measured:
[1] = target: T1, C3a Receptor; assay: C3a binding to HEK 293 cells stably expressing C3a Receptor mRNA; parameters: cDNA encoding a complete orphan GPCR of 482 amino acids; expressed in transfected cells; conditions: data not shown
Excerpt: C3a was radioiodinated and used in whole cell binding assays to further characterize C3a Receptor. […] Curiously, HEK 293 cells stably expressing C3a Receptor mRNA by Northern Blot, neither bound nor responded to C3a (data not shown).

[2] = system: C5a-R; assay: Electrophysiological response (Ca2+ mediated chloride currents, two electrode voltage clamp) of Xenopus oocytes injected with C5a-R cRNA; type: cell-based, human; conditions: oocytes co-injected with C5a-R cRNA (10 ng) and U937 RNA (25 ng), ligands 10 nM
Protocol: (A) Electrophysiological response of Xenopus oocytes injected with cRNA for C3a Receptor (10 ng), total U937 RNA (25 ng), or a mixture of C3a Receptor (10 ng) and U937 RNA (25 ng) to 10 nM rC5a, 10 nM C3a analogue peptide, 10 nM platelet activating factor (PAF), 10 nM fMetLeuPhe. Inset, represents typical response of oocytes co-injected with C3a Receptor cRNA+U937 RNA to 10 nM C3a. (B) Electrophysiological response of oocytes injected with C5a-R cRNA (10 ng), U937 RNA (25 ng) or a mixture of C5a-R and U937 RNA, to 10 nM rC5a or 10 nM C3a analogue peptide. […] Calcium mobilization by Fura 2 loaded cells expressing C5a receptor (FIGS. 4A & 4C) or C3a Receptor (FIGS. 4B & 4D) in response to rC5a (10 nM, FIG. 4A or 100 nM, FIG. 4B) or C3a analogue peptide (1 uM, FIGS. 4C & 4D).
Commercially prepared (Clontech, Palo Alto, Calif.) multiple tissue blots containing approximately 2 μg poly-A mRNA per lane were sequentially hybridized with random primer ^32 P-labeled cDNAs spanning the coding regions of C5a-R and C3a Receptor. C5a-R was cloned via PCR from differentiated U937 RNA. Final washing step was carried out twice in 0.5× SSC, 1% SDS at 65° C. for 20 min.
Capped cRNA transcripts were generated from linearized C3a Receptor and C5a-R plasmid DNA as previously described (Kumar, C. S., et al (1989) J. Biol. Chem. 264, 17939-17946) and suspended in sterile water at a concentration of 0.2 μg/μl. […] Results represent average response determined in three separate experiments.
The chemotactic receptors for C5a and the fMLP-R have previously been functionally expressed in Xenopus laevis oocytes (Kroll, B., et al (1991) FEBS Lett. 291, 208-210; Murphy, P. M. & McDermott, D. (1991) J Biol. Chem. 266, 12560-12567; Murphy, P. M., Gallin, E. K., and Tiffany, H. L. (1990) J Immunol. 145, 2227-2234; Schultz, P., et al (1992) Cellular Signalling 4, 153-161) and, unlike all other GPCRs tested in this system, injection of cRNA for the cloned chemotactic receptors alone is insufficient to stimulate signal transduction in response to ligand binding (Kroll, B., et al (1991) FEBS Lett. 291, 208-210; Murphy, P. M. & McDermott, D. (1991) J Biol. Chem. 266, 12560-12567). Functional expression of both of these chemotactic receptors, as monitored by induction of Ca^2+ mediated chloride currents, requires the co-injection of a complimentary human factor which can be supplied by total RNA from myeloid or liver cells (Kroll, B., et al (1991) FEBS Lett. 291, 208-210; Murphy, P. M. & McDermott, D. (1991) J Biol. Chem. 266, 12560-12567). […]

[3] = system: guinea pig ileal tissue; conditions: C3a and C4a; cited from earlier work

| Molecule | binding of C3a to HEK 293 cells expressing C3a Receptor mRNA [1] | electrophysiological response of oocytes expressing C5a-R [2] | electrophysiological response of oocytes expressing C5a-R ([2]; listed as native ligand) | cross desensitization of guinea pig ileal tissue [3] | electrophysiological response of oocytes expressing C5a-R ([2]; listed as C5a) |
| --- | --- | --- | --- | --- | --- |
| C3a: C3a was purchased from Advanced Research Technologies, San Diego; anaphylatoxin; radioiodinated for binding | neither bound | smaller response; also recorded: respond | elicited similar responses | cross desensitize | – |
| rC5a: Human rC5a was expressed in E. coli and purified to homogeneity (protein, UniProt P01031 678-751, looked up, C5a anaphylatoxin recombinant, E. coli, Human rC5a was expressed in E. coli and purified to homogeneity) C5a anaphylatoxin: TLQKKIEEIAAKYKHSVVKKCCYDGACVNNDETCEQRAARISLGPRCIKAFTECCVVASQLRANISHKDMQLGR | – | induced rapid activation of chloride currents | – | – | respond |
